Experiment [1] has as its target human KIR2DL3 expressed on NK and T lymphocytes of KIR2DL3 transgenic C57Bl/6 mice (human) (UniProt P43628). Kind of experiment: in vivo receptor occupancy in whole blood of KIRtgB6 mice, 20 mg/kg iv, for 14 days.
Experiment [2] shares this target. Kind of experiment: in vivo receptor occupancy in KIRtgB6 mice, 10 mg/kg iv, for 8 days.

Chain of UniProt P43628 (P43628 22-341): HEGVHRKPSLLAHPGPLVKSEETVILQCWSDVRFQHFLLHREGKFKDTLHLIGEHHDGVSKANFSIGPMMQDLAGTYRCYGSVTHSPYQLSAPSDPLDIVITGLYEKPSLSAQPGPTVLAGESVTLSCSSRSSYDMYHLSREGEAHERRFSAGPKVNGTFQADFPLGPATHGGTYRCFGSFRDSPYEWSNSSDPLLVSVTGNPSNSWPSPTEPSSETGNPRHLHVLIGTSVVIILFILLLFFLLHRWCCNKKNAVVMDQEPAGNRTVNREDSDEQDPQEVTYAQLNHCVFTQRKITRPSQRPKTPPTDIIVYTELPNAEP

Regarding Anti-KIR antibody clone GL183, the KIR receptor occupancy in experiment [1] and in experiment [2] was > 90% each time.

These data come from US20180117147A1.
